Data on eleven molecules can be found in patent US20230272056A1 (Merck Sharp & Dohme, published 2023).

Assay [1] addresses human LAP-TGFβ1 expressed on P3U1 cells (human, UniProt P01137 30-390). Put plainly: cell-based or functional assay.
Assay [2] concerns the target T1, human LAP-TGFB1 Fc fusion (human).
T1 construct: also called human LAP-TGFβ1-Fc; human LAP-TGFβ-Fc isoform 1
Put plainly: SPR pH 6.0, antigen captured on Fab 54BLH. From the text: A Series S C1 sensor chip (Cytiva, catalog BR100535) was immobilized with low densities of high affinity Fab 54BLH on a Biacore T200 instrument with 1×HBS-EP+(Teknova, catalog H8022). This surface served as a monovalent capture surface for a low-density layer of heterodimer human LAP-TGFβ1 complex leaving the second binding site exposed for monovalent kinetic binding analysis with both mAbs and Fabs. Immobilized flow cell 1 served as the reference and flow cells 2, 3 and 4 were used to evaluate the binding interaction between human LAP-TGFβ1 and yeast display mutant mAbs and Fabs.
Approximately 15-25 RU of human LAP-TGFβ1-Fc was captured to the Fab capture surface followed by injection of 1:3 serially diluted Fabs and mAbs from 6 nM to 0.07 nM (Fabs: 54BLH, 55BLH, 60BLH, 63BLH, 64BLH-mAbs: 69BLH, 70BLH) and 1:3 serially diluted Fab and mAbs from 60 nM to 0.74 nM (Fabs: 59BLH, 66BLH, 67BLH—mAbs: 74BLH, 75BLH, 78BLH, 79BLH, 81BLH, 82BLH) including 0 nM. The binding data was double referenced by subtraction of signal from a reference flow cell and the 0 nM injections for evaluation of Fabs and mAbs respectively. Binding rate constants were calculated/determined by fitting the data with a 1:1 binding model (Cytiva Biacore T200 Evaluation software 3.0).

In assay [3] the target is T1, human LAP-TGFB1 Fc fusion. The experiment in a line: SPR, antigen-Fc captured, Fab analyte. From the text: (§1) This Example describes the isoform specificity of the yeast display mutants to bind to human LAP-TGFβ isoforms 1, 2, and 3 using surface plasmon resonance. A Series S CM4 sensor chip (GE Healthcare, catalog BR100534) was immobilized with an anti-human Fc capture antibody following the kit protocol (GE Healthcare, catalog BR100839) on a Biacore T200 instrument with 1× HBS-EP+ (Teknova, catalog H8022). […] Binding specificity experiments between human LAP-TGFβ isoforms 2 and 3 and yeast display mutants were performed in 1× HBS-EP+ with 0.1 mg/mL BSA at 25° C. Approximately 20-40 RU amounts of human LAP-TGFβ2 and 3 were captured to the anti-human Fc surface followed by injection of 1000 nM Fab including a negative control 0 nM Fab. The binding data were double referenced by subtraction of signal from a reference (capture surface only) flow cell and the negative control 0 nM Fab injection. Binding rate constants were determined by fitting the data with a 1:1 binding model (GE Healthcare Biacore T200 Evaluation software 3.0).
Background: In SPR one partner is held on a chip, and binding of the other changes the refractive index at the surface.

Assay [4] deals with T2, human LAP-TGFB2 Fc fusion (human).
T2 construct: also called human LAP-TGFβ2; LAP-TGFβ isoform 2
T2 sequence (chain, as listed by the source limits assumed): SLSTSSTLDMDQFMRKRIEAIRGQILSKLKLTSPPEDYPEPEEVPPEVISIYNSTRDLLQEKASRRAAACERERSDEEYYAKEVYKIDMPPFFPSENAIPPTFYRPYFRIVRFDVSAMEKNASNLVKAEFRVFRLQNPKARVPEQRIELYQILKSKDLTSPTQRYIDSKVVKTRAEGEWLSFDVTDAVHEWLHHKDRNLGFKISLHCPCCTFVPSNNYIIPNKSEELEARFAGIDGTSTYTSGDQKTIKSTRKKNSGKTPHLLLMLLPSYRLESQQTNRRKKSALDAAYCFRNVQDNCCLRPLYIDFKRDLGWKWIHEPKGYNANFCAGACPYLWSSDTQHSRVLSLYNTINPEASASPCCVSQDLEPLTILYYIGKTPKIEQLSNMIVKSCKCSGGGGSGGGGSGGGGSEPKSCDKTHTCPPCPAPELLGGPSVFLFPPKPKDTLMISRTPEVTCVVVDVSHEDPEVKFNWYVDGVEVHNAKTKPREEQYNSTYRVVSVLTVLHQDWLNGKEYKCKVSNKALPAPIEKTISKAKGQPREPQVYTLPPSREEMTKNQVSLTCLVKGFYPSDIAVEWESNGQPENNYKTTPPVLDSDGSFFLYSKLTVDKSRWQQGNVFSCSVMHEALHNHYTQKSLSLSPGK
The experiment in a line: SPR.
Description: as §1

Assay [5] has as its target T3, human LAP-TGFB3 Fc fusion (human).
T3 construct: also called human LAP-TGFβ3; LAP-TGFβ isoform 3
Put plainly: SPR.
Description: as §1

T1 sequence (chain, as listed by the source limits assumed): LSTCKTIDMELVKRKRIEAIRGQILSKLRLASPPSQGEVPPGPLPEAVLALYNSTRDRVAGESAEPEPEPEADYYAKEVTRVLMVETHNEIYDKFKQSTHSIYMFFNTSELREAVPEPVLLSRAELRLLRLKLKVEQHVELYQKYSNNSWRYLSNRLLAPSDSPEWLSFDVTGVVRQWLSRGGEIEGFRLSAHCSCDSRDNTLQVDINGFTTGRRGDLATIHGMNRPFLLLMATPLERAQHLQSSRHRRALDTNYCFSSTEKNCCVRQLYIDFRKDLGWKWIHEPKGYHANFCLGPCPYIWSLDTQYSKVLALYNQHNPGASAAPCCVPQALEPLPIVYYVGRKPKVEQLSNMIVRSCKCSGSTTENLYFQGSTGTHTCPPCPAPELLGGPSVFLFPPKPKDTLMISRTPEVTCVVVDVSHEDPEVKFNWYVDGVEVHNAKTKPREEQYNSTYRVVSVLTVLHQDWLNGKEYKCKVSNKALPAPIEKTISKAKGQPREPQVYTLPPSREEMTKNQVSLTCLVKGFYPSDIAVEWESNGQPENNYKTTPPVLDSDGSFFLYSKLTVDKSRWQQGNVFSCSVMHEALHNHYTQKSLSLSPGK
T3 sequence (chain, as listed by the source limits assumed): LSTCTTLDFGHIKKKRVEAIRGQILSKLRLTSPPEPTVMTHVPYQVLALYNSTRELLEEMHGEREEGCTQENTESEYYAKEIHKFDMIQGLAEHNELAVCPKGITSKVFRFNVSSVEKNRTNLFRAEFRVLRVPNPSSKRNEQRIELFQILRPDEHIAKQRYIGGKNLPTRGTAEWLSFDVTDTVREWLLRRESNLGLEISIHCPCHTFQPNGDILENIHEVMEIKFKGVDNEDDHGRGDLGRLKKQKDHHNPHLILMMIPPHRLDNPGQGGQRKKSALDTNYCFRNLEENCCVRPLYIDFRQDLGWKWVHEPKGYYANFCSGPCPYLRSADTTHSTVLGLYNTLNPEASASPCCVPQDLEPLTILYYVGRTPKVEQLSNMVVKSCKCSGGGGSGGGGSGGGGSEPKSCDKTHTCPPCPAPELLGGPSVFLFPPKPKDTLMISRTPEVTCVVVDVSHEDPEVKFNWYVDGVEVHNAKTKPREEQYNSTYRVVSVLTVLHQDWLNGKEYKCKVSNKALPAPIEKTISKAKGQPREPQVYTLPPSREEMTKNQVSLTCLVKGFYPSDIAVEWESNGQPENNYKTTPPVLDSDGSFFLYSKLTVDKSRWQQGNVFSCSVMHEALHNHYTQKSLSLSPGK
Sequence of human LAP-TGFβ1 expressed on P3U1 cells (P01137 30-390): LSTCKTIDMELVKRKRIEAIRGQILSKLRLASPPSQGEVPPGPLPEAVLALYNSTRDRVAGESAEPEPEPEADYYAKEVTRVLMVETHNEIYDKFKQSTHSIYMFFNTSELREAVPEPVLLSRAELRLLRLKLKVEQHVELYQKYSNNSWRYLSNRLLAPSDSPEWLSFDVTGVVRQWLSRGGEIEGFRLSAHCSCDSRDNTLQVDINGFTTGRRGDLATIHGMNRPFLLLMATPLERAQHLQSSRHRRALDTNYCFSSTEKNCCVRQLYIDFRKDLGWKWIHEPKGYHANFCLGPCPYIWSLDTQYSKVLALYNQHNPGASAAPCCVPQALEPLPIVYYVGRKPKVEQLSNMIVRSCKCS

B1: 06BLM (antibody, human IgG1, L234A L235A, V domains shown)
VH: EVQLVQSGAEVKKPGASVKVSCKASGYTFTSYDMHWVRQAPGQGLEWMGRIDPQSGGIRYAQKFQGRATLTVDTSTSTAYMELSRLRSDDTAVYYCARWDYGGQFDVWGQGTLVTVSS
VL: DIQMTQSPSSLSASVGDRVTITCRASQDIYNYLNWYQQKPGKAVKLLIYYTSILETGVPSRFSGSGSGTDYTLTISSLQPEDFATYFCQQGDTLPWTFGQGTKLEIK
notes: IgG1 L234A L235A D265S/kappa; also called 69BLH; 42BMD
For B1, in assay [1], the “Average EC50” value was found to be 0.125 µg/mL, the “ELISA assay 2 EC50” value came to 0.137 µg/mL and the “ELISA assay #1 EC50” value was determined as 0.113 µg/mL. In assay [2], the “Fab/mAb KD Ratio” value turned out to be 1.9; the Kd – broadly, the constant that tells how readily two partners part at equilibrium – stood at 0.0114 nM; the koff (as a rule, the rate constant with which the complex falls apart) stood at 6.18e-05 s⁻¹; the association rate constant (kon) – broadly, the rate constant with which the complex forms – came to 5.43e+06 M⁻¹ s⁻¹.

B2: 62BJN (Fab, V domains shown)
VH: EVQLVQSGAEVKKPGASVKVSCKASGYTFTSYDMHWVRQAPGQGLEWMGRIDPYGGGIKYAQKFQGRATLTVDTSTSTAYMELSRLRSDDTAVYYCARYDHGGYFDVWGQGTLVTVSS
VL: DIQMTQSPSSLSASVGDRVTITCRASQDIYNYLNWYQQKPGKAVKLLIYYTSRLHSGVPSRFSGSGSGTDYTLTISSLQPEDFATYFCQQGDTLPWTFGQGTKLEIKR
notes: also called VH W33D Q54Y S55G W99Y Y101H / VL T30Y (62BJN)
Turning to B2, in assay [3], the “Fold improvement in KD” value came to 5 fold, the Kd turned out to be 15.6 nM, the koff was 0.032 s⁻¹ and the kon came to 2.05e+06 M⁻¹ s⁻¹. The binding result in assay [4] is recorded as “no binding (tested: 1000 nM Fab)”. Also, the binding result in assay [5] was “no binding (tested: 1000 nM Fab)”.

B3: 58BJN (Fab, V domains shown)
VH: EVQLVQSGAEVKKPGASVKVSCKASGYTFTSYDMHWVRQAPGQGLEWMGRIDPQSGGIKYAQKFQGRATLTVDTSTSTAYMELSRLRSDDTAVYYCARYDHGGYFDVWGQGTLVTVSS
VL: DIQMTQSPSSLSASVGDRVTITCRASQDIYNYLNWYQQKPGKAVKLLIYYTSRLHSGVPSRFSGSGSGTDYTLTISSLQPEDFATYFCQQGDTLPWTFGQGTKLEIKR
notes: also called VH W33D W99Y Y101H / VL T30Y (58BJN)
Consider B3, for which, in assay [3], the “Fold improvement in KD” value was determined as 13 fold, the dissociation constant (Kd) came out at 6.42 nM, the koff was 0.0151 s⁻¹ and the kon worked out at 2.35e+06 M⁻¹ s⁻¹. In assay [4], the binding result is “no binding (tested: 1000 nM Fab)”. Further, the binding result in assay [5] is listed as “no binding (tested: 1000 nM Fab)”.

B4: 60BJN (Fab, V domains shown)
VH: EVQLVQSGAEVKKPGASVKVSCKASGYTFTSYDMHWVRQAPGQGLEWMGRIDPQSGGEKYAQKFQGRATLTVDTSTSTAYMELSRLRSDDTAVYYCARYDYGGYFDVWGQGTLVTVSS
VL: DIQMTQSPSSLSASVGDRVTITCRASQDIYNYLNWYQQKPGKAVKLLIYYTSRLHSGVPSRFSGSGSGTDYTLTISSLQPEDFATYFCQQGDTLPWTFGQGTKLEIKR
notes: also called VH W33D I58E W99Y / VL T30Y (60BJN)
Turning to B4, in assay [3], the “Fold improvement in KD” value stood at 31 fold; the affinity, expressed as Kd, was 2.57 nM; the koff worked out at 0.00653 s⁻¹; the kon stood at 2.54e+06 M⁻¹ s⁻¹. Moreover, in assay [4], the binding result is recorded as “no binding (tested: 1000 nM Fab)”. Besides, in assay [5], the binding result is on record as “no binding (tested: 1000 nM Fab)”.

B5: 56BJN (Fab, V domains shown)
VH: EVQLVQSGAEVKKPGASVKVSCKASGYTFTSYDIHWVRQAPGQGLEWMGRIDPYSGGIKYAQKFQGRATLTVDTSTSTAYMELSRLRSDDTAVYYCARWDYGGYFDVWGQGTLVTVSS
VL: DIQMTQSPSSLSASVGDRVTITCRASQDITNYLNWYQQKPGKAVKLLIYYTSRLHSGVPSRFSGSGSGTDYTLTISSLQPEDFATYFCQQGDTLPWTFGQGTKLEIKR
notes: also called VH W33D M34I Q54Y / VL (56BJN)
As for B5, the “Fold improvement in KD” value in assay [3] worked out at 1 fold. Further, the binding result in assay [4] and in assay [5] was “no binding (tested: 1000 nM Fab)” throughout.

B6: 61BJN (Fab, V domains shown)
VH: EVQLVQSGAEVKKPGASVKVSCKASGYTFTDYDMHWVRQAPGQGLEWMGRIDPQSGDHDYAQKFQGRATLTVDTSTSTAYMELSRLRSDDTAVYYCARYDHGGYFDVWGQGTLVTVSS
VL: DIQMTQSPSSLSASVGDRVTITCRASQDIYNYLNWYQQKPGKAVKLLIYYTSRLHSGVPSRFSGSGSGTDYTLTISSLQPEDFATYFCQQGDTLPWTFGQGTKLEIKR
notes: also called VH S31D W33D G57D I58H K59D W99Y Y101H / VL T30Y (61BJN)
For the molecule B6, in assay [3], the “Fold improvement in KD” value came to 1 fold, binding was characterised by a dissociation constant (Kd) of 175 nM, the koff was found to be 0.279 s⁻¹ and the kon was determined as 1.59e+06 M⁻¹ s⁻¹. In addition, the binding result in assay [4] is reported as “no binding (tested: 1000 nM Fab)”. In addition, the binding result in assay [5] was “no binding (tested: 1000 nM Fab)”.

B7: 55BJN (Fab, V domains shown)
VH: EVQLVQSGAEVKKPGASVKVSCKASGYTFTSYDIHWVRQAPGQGLEWMGRIDPQSGGIKYAQKFQGRATLTVDTSTSTAYMELSRLRSDDTAVYYCARWDYGGYFDVWGQGTLVTVSS
VL: DIQMTQSPSSLSASVGDRVTITCRASQDITNYLNWYQQKPGKAVKLLIYYTSRLHSGVPSRFSGSGSGTDYTLTISSLQPEDFATYFCQQGDTLPWTFGQGTKLEIKR
notes: also called VH W33D M34I / VL (55BJN)
In the case of B7, the “Fold improvement in KD” value in assay [3] is 3 fold. In addition, the binding result in assay [4] and in assay [5] was “no binding (tested: 1000 nM Fab)” each time.

B8: 59BJN (Fab, V domains shown)
VH: EVQLVQSGAEVKKPGASVKVSCKASGYTFTSYQVHWVRQAPGQGLEWMGRIDPQSGGIKYAQKFQGRATLTVDTSTSTAYMELSRLRSDDTAVYYCARWDYGGYFDVWGQGTLVTVSS
VL: DIQMTQSPSSLSASVGDRVTITCRASQDIYNYLNWYQQKPGKAVKLLIYYTSRLHSGVPSRFSGSGSGTDYTLTISSLQPEDFATYFCQQGDTLPWTFGQGTKLEIKR
notes: also called VH W33Q M34V / VL T30Y (59BJN)
With B8, in assay [3], the “Fold improvement in KD” value was determined as 7 fold, the dissociation constant Kd was 11.7 nM, the koff was found to be 0.0263 s⁻¹ and the kon is 2.24e+06 M⁻¹ s⁻¹. Besides, the binding result in assay [4] is “no binding (tested: 1000 nM Fab)”. Also, the binding result in assay [5] is on record as “no binding (tested: 1000 nM Fab)”.

B9: 63BJN (Fab, V domains shown)
VH: EVQLVQSGAEVKKPGASVKVSCKASGYTFTFYDIHWVRQAPGQGLEWMGRIDPQSGGIKYAQKFQGRATLTVDTSTSTAYMELSRLRSDDTAVYYCARWDYGGYFDVWGQGTLVTVSS
VL: DIQMTQSPSSLSASVGDRVTITCRASQDIYNYLNWYQQKPGKAVKLLIYYTSRLHSGVPSRFSGSGSGTDYTLTISSLQPEDFATYFCQQGDTLPWTFGQGTKLEIKR
notes: also called VH S31F W33D M34I / VL T30Y (63BJN)
Take B9: in assay [3], the “Fold improvement in KD” value is 25 fold, the Kd is 3.23 nM, the koff amounted to 0.0053 s⁻¹ and the kon is 1.64e+06 M⁻¹ s⁻¹. Moreover, the binding result in assay [4] is “no binding (tested: 1000 nM Fab)”. Further, in assay [5], the binding result was “no binding (tested: 1000 nM Fab)”.

B10: 64BJN (Fab, V domains shown)
VH: EVQLVQSGAEVKKPGASVKVSCKASGYTFTTYWMHWVRQAPGQGLEWMGRIDPQSGGSKYAQKFQGRATLTVDTSTSTAYMELSRLRSDDTAVYYCARWDYGGYFDVWGQGTLVTVSS
VL: DIQMTQSPSSLSASVGDRVTITCRASQDIYNYLNWYQQKPGKAVKLLIYYTSHLHSGVPSRFSGSGSGTDYTLTISSLQPEDFATYFCQQGDTLPWTFGQGTKLEIKR
notes: also called VH S31T I58S / VL T30Y R53H (64BJN)
With B10, in assay [3], the “Fold improvement in KD” value came out at 37 fold, the Kd stood at 2.15 nM, the koff was determined as 0.0077 s⁻¹ and the on-rate (kon) came out at 3.57e+06 M⁻¹ s⁻¹. Also, in assay [4], the binding result is reported as “no binding (tested: 1000 nM Fab)”. In addition, in assay [5], the binding result is “no binding (tested: 1000 nM Fab)”.

B11: 57BJN (Fab, V domains shown)
VH: EVQLVQSGAEVKKPGASVKVSCKASGYTFTSYDMHWVRQAPGQGLEWMGRIDPQSGGIKYAQKFQGRATLTVDTSTSTAYMELSRLRSDDTAVYYCARWDYGGYFDVWGQGTLVTVSS
VL: DIQMTQSPSSLSASVGDRVTITCRASQDITNYLNWYQQKPGKAVKLLIYYTSRLHSGVPSRFSGSGSGTDYTLTISSLQPEDFATYFCQQGDTLPWTFGQGTKLEIKR
notes: also called VH W33D / VL (57BJN)
As to B11, in assay [3], the “Fold improvement in KD” value was 6 fold, the equilibrium dissociation constant (Kd) amounted to 13.4 nM, the koff came out at 0.0178 s⁻¹ and the kon is 1.33e+06 M⁻¹ s⁻¹. In addition, in assay [4], the binding result is reported as “no binding (tested: 1000 nM Fab)”. Besides, the binding result in assay [5] is “no binding (tested: 1000 nM Fab)”.
